PMC8865267 (mAbs, 2022)
Substitutions are numbered along the chain they refer to. Where two headings read alike, the source gives them in different places.

Legend:
[1] = molecular target: human CTLA-4 with C-terminal Myc, poly-histidine and BirA biotinylation tag (Homo sapiens (Human).) (UniProt P16410); assay: SPR
[2] = molecular target: CTLA-4 of activated primary human CD4+CD25+ T cells (human (endogenous in primary CD4+CD25+ …, UniProt P16410)); assay: flow cytometry on cells
[3] = molecular target: CTLA-4 on BW cells expressing ~2,000 CTLA-4 receptor copies (Homo sapiens (Human)., UniProt P16410); assay: flow cytometry on cells
[4] = molecular target: T1, human CTLA-4 with C-terminal poly-histidine tag (crystallography construct) (human, UniProt P16410, glycans trimmed with EndoH); assay: crystal structure
[5] = molecular target: T1, human CTLA-4 with C-terminal …; assay: crystal structure; remark: listed apart in the source

T1 sequence (P16410 36-161): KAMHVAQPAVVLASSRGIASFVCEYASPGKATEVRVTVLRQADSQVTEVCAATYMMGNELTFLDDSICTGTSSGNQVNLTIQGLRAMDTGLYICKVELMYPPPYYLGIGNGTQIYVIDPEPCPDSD
Sequence of CTLA-4 of activated primary human CD4+CD25+ T cells (human (P16410 36-223): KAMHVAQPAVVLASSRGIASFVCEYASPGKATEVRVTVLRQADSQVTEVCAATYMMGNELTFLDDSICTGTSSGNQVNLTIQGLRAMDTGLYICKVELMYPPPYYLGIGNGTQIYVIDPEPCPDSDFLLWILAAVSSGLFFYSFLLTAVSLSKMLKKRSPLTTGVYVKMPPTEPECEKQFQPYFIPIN
Sequence of CTLA-4 on BW cells expressing ~2,000 CTLA-4 receptor copies (P16410 36-223): as above

## ipilimumab Fab
[1]
  Kd: 40 nM

B1: Ipi.105 IgG1, non-fucosylated (antibody, V domains shown)
VH: QVQLVESGGGVVQPGRSLRLSCAASGFTFSHYTMHWVRQAPGKGLEWVTFISYDGHNKYYADSVKGRFTISRDNSKNTLYLQMNSLRAEDTAIYYCARTGWLGPFDYWGQGTLVTVSS
VL: EIVLTQSPGTLSLSPGERATLSCRASQEVGESELAWYQQKPGQAPRLLIYGAFSRATGIPDRFSGSGSGTDFTLTISRLEPEDFAVYYCQQYGSSPWTFGQGTKVEIK
[2]
  binding result: binds
[3]
  binding result: binds

B2: Ipi.105 Fab (Fab, V domains shown)
VH: B1 VH
VL: B1 VL
[4]
  binding result: binds

B3: Ipi.106 IgG1, non-fucosylated (antibody, V domains shown)
VH: B1 VH with T99H
VL: B1 VL
[2]
  binding result: binds
[3]
  binding result: binds

B4: Ipi.106 Fab (Fab, V domains shown)
VH: B1 VH with T99H
VL: B1 VL
[5]
  binding result: binds
